Source: US20240200044, “EVOLUTION OF TALENS” (President and Fellows of Harvard College, published 2024)

Molecular target: T1, CBX8-directed TALE-omega (synthetic construct, UniProt Q56830 SEQ:41-724)
T1 chain: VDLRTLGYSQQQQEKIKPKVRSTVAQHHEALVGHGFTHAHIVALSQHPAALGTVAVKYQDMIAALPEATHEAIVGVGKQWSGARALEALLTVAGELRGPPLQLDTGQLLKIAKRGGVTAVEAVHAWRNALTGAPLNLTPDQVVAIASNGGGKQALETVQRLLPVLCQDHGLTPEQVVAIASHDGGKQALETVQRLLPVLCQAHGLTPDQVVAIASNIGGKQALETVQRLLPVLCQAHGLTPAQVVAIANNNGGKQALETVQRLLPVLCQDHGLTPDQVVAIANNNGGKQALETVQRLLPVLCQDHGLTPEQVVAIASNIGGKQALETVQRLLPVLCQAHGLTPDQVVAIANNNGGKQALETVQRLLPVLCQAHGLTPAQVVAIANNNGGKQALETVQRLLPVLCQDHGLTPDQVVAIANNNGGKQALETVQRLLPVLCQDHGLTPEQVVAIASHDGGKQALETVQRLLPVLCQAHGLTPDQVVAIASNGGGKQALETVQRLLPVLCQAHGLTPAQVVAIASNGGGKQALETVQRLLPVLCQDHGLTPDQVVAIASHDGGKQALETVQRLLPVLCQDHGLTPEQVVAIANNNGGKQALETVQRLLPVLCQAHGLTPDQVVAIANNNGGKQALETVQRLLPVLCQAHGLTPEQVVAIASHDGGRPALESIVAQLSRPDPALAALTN
Assay: one_hybrid; luciferase induction, 18 aa C-terminus plus GGGGS linker
Conditions: tags: N-terminal FLAG-NLS, C-terminal RNAP omega
Protocol: This system was used to continuously evolve TALE proteins with novel properties. A series of C-terminal fusions between a previously reported TALE array targeting CBX8 (right half-site TALE)¹⁸, and the RNAP w subunit were tested. […] The sequence specificity of the system was verified using an off-target sequence in the luciferase assay, and performed on- and off-target colorimetric plaque assays using TALE-ω SP and host cells harboring the AP containing the target CBX8 sequence. Similar to the findings with zinc fingers, both luciferase expression and phage propagation were dependent on the presence of the cognate TALE binding site (FIG. 10B). Finally, PACE was performed for 24 h on the cognate AP to optimize the SP backbone.
Luciferase assay. pOH plasmids were transformed by electroporation into S1030 cells, and grown overnight at 37° C. on LB-agar plates supplemented with 50 μg/mL carbenicillin. Single colonies were used to inoculate cultures which were allowed to grow for ˜12 h at 37° C. in DRM supplemented with 50 μg/mL carbenicillin in a shaker. Cultures were diluted to an OD₆₀₀ of ˜0.3 and allowed to grow for an additional 2 h at 37° C. […] 200 μL aliquots of each sample were then transferred to 96-well opaque plates and luminescence and OD₆₀₀ readings were taken using a Tecan Infinite Pro instrument. Luminescence data were normalized to cell density by dividing by the OD₆₀₀ value.

B1: CBX8 5'T site (dsDNA)
DNA 1: TTCAGGAGGGCTTCGGC
DNA 2: GCCGAAGCCCTCCTGAA
binding signal: > 10 fold
